Experimental data published in patent US20230416329A1, “A PEPTIDE WITH DISULFIDE BONDS AND INHIBITORY ACTIVITY AGAINST SERINE PROTEASES, DERIVED HYBRID PEPTIDES THEREOF, AND USES THEREOF” (INSTITUTE OF MATERIA MEDICA , CHINESE ACADEMY OF MEDICAL …, priority 2020, published 2023).

System: P407-induced hyperlipidemia mice
Assay: Effect of Repatha on serum TC and LDL-C in P407-induced hyperlipidemia mice (model validation)
Assay type: in vivo, mouse
Experimental: Model preparation and validation: Normal ICR mice were fasted overnight with water ad libitum. The poloxamer 407 (P407, 500 mg/kg) was intraperitoneally injected on the next day. […] The clinical drug Repatha was injected subcutaneously at a dose of 40 mg/kg for 24 hours, followed by intraperitoneal injection of P407. The serum TC and LDL-C levels were measured 24 hours after injection of P407 (Table 25).

[1] = serum, Repatha 40 mg/kg subcutaneous, 24 hours after P407 injection

B1: Repatha: the clinical (marketed) drug Repatha, positive control in the P407 hyperlipidemia model (antibody, chains of the INN, looked up, V domains shown)
VH: EVQLVQSGAEVKKPGASVKVSCKASGYTLTSYGISWVRQAPGQGLEWMGWVSFYNGNTNYAQKLQGRGTMTTDPSTSTAYMELRSLRSDDTAVYYCARGYGMDVWGQGTTVTVSS
VL: ESALTQPASVSGSPGQSITISCTGTSSDVGGYNSVSWYQQHPGKAPKLMIYEVSNRPSGVSNRFSGSKSGNTASLTISGLQAEDEADYYCNSYTSTSMVFGGGTKLTVL
serum TC and LDL-C levels (in words) (40 mg/kg s.c., P407 500 mg/kg i.p., ICR mice): significantly reduced the serum TC and LDL-C levels
LDL-C [1]: 0.364 ± 0.097 mmol/L
TC [1]: 190.0 ± 36.6 mg/dL
